Measurements taken from patent US7939307B2, “Deletion mutant of multi-copper oxidase and its use in dyeing” (National University Corporation Kanazawa University, priority 2005, dated 2011).

How the values were obtained:
[1] = Oxidative polymerization activity for representative substrates of laccase (Test Example 1); format: biochemical; details: pH 5.5
Experimental: 2,6-dimethoxyphenol, p-phenylenediamine, 2,2′-azino-bis(3-ethylbenzothiazoline-6-sulfonate) (ABTS), 2-methoxyphenol, and catechol were dissolved in an ion-exchange distilled water, respectively, to each give a 50 mM aqueous solution.
4-hydroxyindole and p-aminophenol were dissolved in dimethylsulfoxide (DMSO), respectively, to each give a 50 mM DMSO solution.
o-aminophenol was dissolved in DMSO, and then dissolved in an ion-exchange distilled water, to give a 50 mM DMSO (10%)-aqueous solution.
1-nitroso-2-naphthol-3,6-disulfonic acid disodium (NNS) was dissolved in an ion-exchange distilled water to give a 5 mM aqueous solution.
Bilirubin was dissolved in DMSO to give a 0.5 mM DMSO solution.
Syringaldazine was dissolved in ethanol to give a 5 mM ethanol solution.
L-tyrosine was dissolved in a 0.1 M phosphate buffer solution (pH 6.5), to give a 1 mM solution.
(§1) For the following method, an acetate buffer solution (pH 5.5) was used as the buffer solution.
For the substrates other than NNS and bilirubin, 0.88 mL of a 0.1 M buffer solution and 0.1 mL of the substrate solution were mixed in a cuvette (1.5 mL UV disposable cell, […], and mixed by inversion. The change in absorbance at each wavelength (measurement wavelength shown in Table 1) from 0 to 30 seconds was measured using a spectrophotometer (UV-2459, manufactured by SHIMADZU).
For NNS and bilirubin, 0.96 mL of a 0.1 M buffer solution and 0.02 mL of the substrate solution were mixed in a cuvette (1.5 mL UV disposable cell, manufactured by TOP), 0.02 mL of an aqueous solution of mCueO (1) was added thereto, and mixed by inversion. The change in absorbance at each wavelength (measurement wavelength shown in Table 1) from 0 to 30 seconds was measured using a spectrophotometer (UV-2459, manufactured by SHIMADZU).
For comparison, the oxidative polymerization activity of an enzyme prepared by adding a histidine tag to the C-terminus of wild-type mature CueO (SEQ ID NO: 8, hereinafter, simply referred to as ‘wild-type CueO’) was measured in the same manner. […] The change in absorbance in 30 seconds which is measured in the above manner was given in terms of change in absorbance in 1 minute (same applies below).

[2] = Oxidative polymerization activity for various substrates (Test Example 2); format: biochemical; details: pH 5.5
Experimental: For substrates other than catechin, lignin (derived from rice), and lignin (derived from conifer), each substrate was dissolved in DMSO, and then dissolved in an ion-exchange water, to give a 1 mM DMSO (1.0%) aqueous solution.
For catechin, lignin (derived from rice), and lignin (derived from conifer), each substrate was dissolved in DMSO, and then dissolved in an ion-exchange distilled water, to give a 2 mg/mL DMSO (1.0%) aqueous solution.
as §1
0.88 mL of a 0.1 M buffer solution and 0.1 mL of the substrate solution were mixed in a cuvette (1.0 mL quartz cell, manufactured by SHIMADZU), 0.02 mL of an aqueous solution of mCueO (1) was added thereto, and mixed by inversion. The change in absorbance at each wavelength (measurement wavelength shown in Table 2) from 0 to 30 seconds was measured using a spectrophotometer (UV-2459, manufactured by SHIMADZU).
For comparison, the oxidative polymerization activity of wild-type CueO was measured in the same manner.

[3] = substrate o-Aminophenol, 420 nm
[4] = substrate p-Phenylenediamine, 470 nm

B1: Wild-type CueO: enzyme prepared by adding a histidine tag to the C-terminus of wild-type mature CueO derived from Escherichia coli (protein, listed as Escherichia coli)
chain: MQRRDFLKYSVALGVASALPLWSRAVFAAERPTLPIPDLLTTDARNRIQLTIGAGQSTFGGKTATTWGYNGNLLGPAVKLQRGKAVTVDIYNQLTEETTLHWHGLEVPGEVDGGPQGIIPPGGKRSVTLNVDQPAATCWFHPHQHGKTGRQVAMGLAGLVVIEDDEILKLMLPKQWGIDDVPVIVQDKKFSADGQIDYQLDVMTAAVGWFGDTLLTNGAIYPQHAAPRGWLRLRLLNGCNARSLNFATSDNRPLYVIASDGGLLPEPVKVSELPVLMGERFEVLVEVNDNKPFDLVTLPVSQMGMAIAPFDKPHPVMRIQPIAISASGALPDTLSSLPALPSLEGLTVRKLQLSMDPMLDMMGMQMLMEKYGDQAMAGMDHSQMMGHMGHGNMNHMNHGGKFDFHHANKINGQAFDMNKPMFAAAKGQYERWVISGVGDMMLHPFHIHGTQFRILSENGKPPAAHRAGWKDTVKVEGNVSEVLVKFNHDAPKEHAYMAHCHLLEHEDTGMMLGFTV
Activity (U) ([1]; substrate 2-Methoxyphenol, 470 nm): 0.00 U
Activity (U) ([1]; substrate ABTS, 420 nm): 40.22 U
Activity (U) ([1]; substrate Bilirubin, 530 nm): 0.53 U
Activity (U) ([1]; substrate Catechol, 400 nm): 0.00 U
Activity (U) ([1]; substrate L-Tyrosine, 490 nm): 0.00 U
Activity (U) ([1]; substrate NNS, 490 nm): 0.00 U
Activity (U) ([1]; substrate Syringaldazine, 530 nm): 4.73 U
Activity (U) [1, 3]: 14.06 U
Activity (U) ([1]; substrate p-Aminophenol, 400 nm): 3.37 U
Activity (U) [1, 4]: 9.70 U
Activity (U) ([2]; substrate 1,3-Dihydroxynaphthalene, 450 nm): 2.53 U
Activity (U) ([2]; substrate 1,5-Dihydroxynaphthalene, 470 nm): 0.78 U
Activity (U) ([2]; substrate 1-Naphthol, 405 nm): 0.00 U
Activity (U) ([2]; substrate 2,4-Diaminophenol dihydrochloride, 470 nm): 69.83 U
Activity (U) ([2]; substrate 2,5-Diaminotoluene sulfate, 470 nm): 44.55 U
Activity (U) ([2]; substrate 2,6-Dihydroxynaphthalene, 405 nm): 0.00 U
Activity (U) ([2]; substrate 2,6-Dimethoxy-4-metylphenol, 405 nm): 0.00 U
Activity (U) ([2]; substrate 2,6-Dimethoxyphenol, 470 nm): 1.43 U
Activity (U) ([2]; substrate 2-Chloro-1,4-phenylenediamine, 450 nm): 3.10 U
Activity (U) ([2]; substrate 2-Methoxyphenol, 450 nm): 0.00 U
Activity (U) ([2]; substrate 4-Hydroxyindole, 405 nm): 3.33 U
Activity (U) ([2]; substrate 5-Aminoorthocresol, 405 nm): 0.00 U
Activity (U) ([2]; substrate 5-Hydroxyindole, 405 nm): 0.00 U
Activity (U) ([2]; substrate Catechin, 405 nm): 0.00 U
Activity (U) ([2]; substrate Catechol, 405 nm): 0.00 U
Activity (U) ([2]; substrate Gallic acid, 405 nm): 1.78 U
Activity (U) ([2]; substrate Hydroquinone, 405 nm): 0.00 U
Activity (U) ([2]; substrate Lignin (derived from conifer), 450 nm): 0.00 U
Activity (U) ([2]; substrate Lignin (derived from rice), 450 nm): 0.00 U
Activity (U) ([2]; substrate N,N-Dimethyl-p-phenylenediamine, 470 nm): 59.35 U
Activity (U) ([2]; substrate Propyl gallate, 405 nm): 0.00 U
Activity (U) ([2]; substrate Protocatechuic acid, 405 nm): 0.00 U
Activity (U) ([2]; substrate Pyrogallol, 405 nm): 9.44 U
Activity (U) ([2]; substrate Resorcinol, 405 nm): 0.00 U
Activity (U) ([2]; substrate Tolylene-3,4-diamine, 470 nm): 0.00 U
Activity (U) ([2]; substrate Trimethylhydroquinone, 405 nm): 0.00 U
Activity (U) ([2]; substrate m-Aminophenol, 405 nm): 0.00 U
Activity (U) ([2]; substrate m-Phenylenediamine, 405 nm): 0.00 U
Activity (U) [2, 3]: 14.06 U
Activity (U) ([2]; substrate o-Phenylenediamine, 430 nm): 0.00 U
Activity (U) ([2]; substrate p-Aminodiphenylamine, 470 nm): 48.86 U
Activity (U) ([2]; substrate p-Aminophenol, 405 nm): 3.37 U
Activity (U) ([2]; substrate p-Methylaminophenol sulfate, 470 nm): 6.51 U
Activity (U) [2, 4]: 19.55 U
